This data set is described as follows: soluble on expression in E. coli; label from the status in PepcDB or PDB records.
Take “MQERDKEPLQERFFRPHFLQAPGDMVAHEGRLCRLDCKVSGLPPPELTWLLNGQPVLPDASHKMLVRGTGVHSLLIDPLTQRDAGTYTCVATNKTGQNSFSLELTVVAKEVKKAPVILEKLQNSGVPEGHPVRLEGRVIGMPPPVFYWKKDNETIPFTRERISMHQDTTGYVCLLIQPAKKSDAGWYTLSAKNEAGIVSCTARLDIYAQWHQQIPTPISIRPSGSRYGSLTSKGLDIFSAFSSVESTMLYSCTSRSVVESDEL”: the “soluble on expression in E. coli” value is listed as “not soluble”.
For “MFDGIGFMELLLIGVLGLIVLGPERLPVAVRSVTSWVRAMKRMANSVKEELEQELKIEQLHADLKKAESKGLSNLSPELQESIEQLKQAAQSVNRPYQVQDTPSAQDNQIHNPASQTVSTEASSTSASSAPKSESIQGEDPRSNTKANGLEHHHHHH”, the “soluble on expression in E. coli” value is “soluble”.
Turning to “FLETLAKVKKIFIDKTGTLTQKEVLLKEKIIYEEFDGRLLKSLLKVREHLAHSAILKSLDGDEVSLEKIEFFAHGLKASYQNETLLVGSLKFLGSMGVDIPMKESANIMVGFAKNETLCALFILEERLKANAKEVVQALQNKGLELEILSGDNESSVKECAKKLGISNYHAHLTPEDKAQTISSYKGVCAMVGDGNNDALALKQASVSLGFEKSALSKSACDILLLEEDLSLLKKAFDNAQKVYQVVLQ”, the “soluble on expression in E. coli” value was “not soluble”.
Consider “STITTEEVLVTVFQFLEKATEYPYNDPHKTLALVVHGILLTHGFRPSEEEPPENVDNWSLSVENAKIPNCFEENKYGGSYRHYKSCMTFEVRMVPLDKYVVVNAVASDVDRVFYCELKLEKYFKDTVLEGGKLVVPLRNLKWSQILKNVTDMIAVLRTQIIYALVPDSAKEGYEAKTSETHVGQSTNQQSQDSRQFSLPSRDPLRVVPPVGSRYYPSAYIDEDRDSIPVLGQGDLYPGGLPRLERTFPSGPLDGSFAAPDNGSLMGPRHSMFQRRDQRPGPGNNMLPRGAVPPGARFDEFGPRFPPDETYSTLAGWRHRQEMPNNDVDEPPPPEMYM”, for which the “soluble on expression in E. coli” value was “soluble”.
Regarding “MHHHHHHSSGVDLGTENLYFQSMGAGRRESEPRPTSARQLDGIRNIVLSNPKKRNTLSLAMLKSLQSDILHDADSNDLKVIIISAEGPVFSSGHDLKELTEEQGRDYHAEVFQTCSKVMMHIRNHPVPVIAMVNGLATAAGCQLVASCDIAVASDKSSFATPGVNVGLFCSTPGVALARAVPRKVALEMLFTGEPISAQEALLHGLLSKVVPEAELQEETMRIARKIASLSRPVVSLGKATFYKQLPQDLGTAYYLTSQAMVDNLALRDGQEGITAFLQKRKPVWSH”, the “soluble on expression in E. coli” value is on record as “soluble”.
Turning to “MATMARWERIVEGVKSIALIKRKIISRGKRIALLVDGPNILRKELGVHLEDIVEALSSLGNIRVAKVILNQYAPQSLIEAVSNQGFEPVIVAGEIGVKLAVEAMREVYNPNIDIIALATRNTEFVPIILKAKEKGKETAIIGVEPGFSSALKHAADYVIVLESRGELSEEGNIEDIEEGKGEGGRGRRKNDRLDN”, the “soluble on expression in E. coli” value is given as “soluble”.
For the sequence “MRASPTSPPEQVVVDASAMVDLLARTSDRCSAVRARLARTAMHAPAHFDAEVLSALGRMQRAGALTVAYVDAALEELRQVPVTRHGLSSLLAGAWSRRDTLRLTDALYVELAETAGLVLLTTDERLARAWPSAHAIG”, the “soluble on expression in E. coli” value is listed as “soluble”.
Turning to “LALIAGTGALPEELVARLSEPPLVCAMEGFAPERLAVDIPFPIEHLGSLVADLKARGVSEICLAGAVGRPAVDPARIDAATLPLVPVIQQALTSGDDGALRAVMGIFENAGLTVRAAHEIAPDLLMPAGCPTKAQPEPAELADARRGAEIVAAMSAADIGQACVVHRGQALAVESVFGTNWMLGSLGQRPDAGGGVLFKAPKPDQDRRADLPTIGPDT”, the “soluble on expression in E. coli” value was “not soluble”.
With “MSLKDKFGREIRSLRISITNKCNLQCFYCHREGHDSNNDRYMTPEEIGIIAKTSTKFGVKKIKISGGEPLLRKDVCEIIENIKDERIKDISLTTNGILLENLAEKLKDAGLNRVNVSLDTLNPELYKKITKFGDVERVINGIKKAIDVSLTPLKVNFLAMSINIKDLPDIMEFCRDIGAILQIIEFIPLKEELKGYYYNISPIENEIKEKADKVITRNFMQNRKKYIVDGLEIEFVRPMDNSEFCMHCTRIRLTYDGYLKPCLLRDDNLVDVLTPLRKGENLEPYFIECINRREPYFKIKEGHHHHHH”, the “soluble on expression in E. coli” value is on record as “soluble”.
Turning to “YSLYNPLKEAELQIEATRAEHERNQQAYNQLQATDISRQVQHDSDATRQALQAWQNSQTELARIDSQVQYLSAQLKQTDPLTGILTRAQNLCAAQGYSADICRQVAKAADTNDLTLFETELDTYIERVEMAESELDKARQGGDAQAVETARHAYLNALNRLSRQIHSLKTGVAGIRMPNLAELISRSANTAVSEQAAYNTGRQQAGRRIDRHLTDPQQQNIWLETGTQQTDYHSGTHRPYQQTTNYAHIGIQTGITDRLSVGTILTDERTNNRFDEGVSARNRSNGAHLFVKGENGALFAAADLGYSNSRTRFTDYDGAAVRRHAWDAGINTGIKIDTGINLRPYAGIRINRSNGNRYVLDGAEINSPAQIQTTWHAGIRLDKTVELGQAKLTPAFSSDYYHTRQNSGSALSVNDRTLLQQAAHGTLHTLQIDAGYKGWNAKLHAAYGKDSNTARHKQAGIKIGYNW”, the “soluble on expression in E. coli” value is reported as “not soluble”.
As for “MSATNLAVEQLQRVLLPRRGEPADVRSLYLLEAESNKERLEWEDRFSVSVPAGAEVSFQTYFNAFPASYWRRWSQLDSVVLKLKVSGEARVDLYRSKIDGARIGITGSVVKDDFIEFEVSLAPFEDGGWIWFDLTAETDATVEEAGWYAPHAPKAQIMPDGSEVGPFEARATVGIPTFNRPADAVAALEALASDPAVDAVIDTVIMPDQGNKHPADEPGYKAAVEHFGDRFFEFRQGNLGGSGGYSRIMFEALGGVDGKGEAGAAKSPYILYMDDDIAIEPDSVLRALQVARYAKSPILVGGQMLNLQERSHLHTMGEVVGGHDFMWTAAPHVHYDHDFSAHPLHDRGKFDDKPDAPNSRDLHRRIDVDFNGWWMCMIPRVVAEQIGQPLPLFIKWDDAEYGLRARKAGFPTATWPGIAIWHMAWSDKDDAIDWQAYFHLRNRLVVAAMYHQGSVDGIVRSMQKATFKHLLCLEYSTVAIQNEAMKDFLAGPDQLFSILDTSLPRIAAIRKTYPDAVVLPSATELPRATGAPGVPTKDIGGRLAPIKKAMWLAKGLKHSLSKEDASHHEVPQANFAPIEARWFSLSRVDGATVTTADGRGVVYRKRDRDKAKELGKEARALQKQVAERFDELSRAYRNAHPELVSREAWGKVFDEQ”, the “soluble on expression in E. coli” value is given as “not soluble”.
Regarding “MGHHHHHHSHMKPSGEDQAALAAGPWEECFQAAVQLALRAGQIIRKALTEEKRVSTKTSAADLVTETDHLVEDLIISELRERFPSHRFIAEEAAASGAKCVLTHSPTWIIDPIDGTCNFVHRFPTVAVSIGFAVRQELEFGVIYHCTEERLYTGRRGRGAFCNGQRLRVSGETDLSKALVLTEIGPKRDPATLKLFLSNMERLLHAKAHGVRVIGSSTLALCHLASGAADAYYQFGLHCWDLAAATVIIREAGGIVIDTSGGPLDLMACRVVAASTREMAMLIAQALQTINYGRDDEK”, the “soluble on expression in E. coli” value is “not soluble”.
In the case of “MGSDKIHHHHHHMIYNYGFLDENTKKEIRRKILKAISIPGYQVPFGSRELPIAKGWGTGGLQLTLSLIGKNDVVKVIDQGSDDSTNACNIRSFIASVSNVETTKDTLEATLIQTRHRIPEEKLKSNQILIFQVPIPETLRIVEPSEVETRRMHSEEDYSRMWVYLYEDIVRFNDISIAVEYPCKVNDRYLMNPSPIPRFDIKKLNMSDNLFLFGAGREKRIYAIPPYTKVEPLEFEDYKFEEEKFEGKYCSLCNSTNTFLDEVYDSDTNEKYYSCSDTSYCEKVRLKNNSIDVTIGGTWNE”, the “soluble on expression in E. coli” value is reported as “not soluble”.
As to “MSLTKIVLITGANKGIGFETAKQIGKNGWTLLISTRNEERGKNAVHQLQQDGITAEWLQIDLNDIASIHKAARYVEERYPKLDGLINNAGISGDMQKNPLELKSSELEQLAKVNFLGNFEMIKSFTPILSRNHGRILNVTIPATPIGSFNPLGYLASKASLNSMIKSFAMYYKKHEIPVEIFGVLPGGISTDLNQHQSGLLIRTVQEGGESIAKVMMDRHNHQGKLLMRMGLTQLARNFVFRRHDEGHHHHHH”, the “soluble on expression in E. coli” value is reported as “not soluble”.
As for “MVKDLSDMSLKELWQLFPIFLVEHKEEWEDWYEEEKERLLHLLPSQSIKSISHIGSTAVPDIWAKNIVDILLEVPEKEDLQDFKKRLLDAGYLLMSEGEKRLSFNKGYTKDGFAEKVFHLHLRYQGDNDELYFRDYLREYPEVAKDYERLKLGLWEKYEHNRDAYTDAKSDFIRKYTQKAKKNDKGKDN”, the “soluble on expression in E. coli” value is “not soluble”.
For “HETENAWRETEERLAATYQAATIGIAESDADGRLLRVNDAFCTMLGRSREQLLNMTFLDYTHEDDRDEEARCYARQVSGETDTYAIRKRAVKADGTVIYLDVYSSTVRDRTGRFRYGVRVLLDVT” the value was “not soluble”; for “MNVMQENQIKLIEHIKQAVVQAVGLEETEVPEILLEVPKDKKHGDYSTNIAMQLARVAKKAPRQIAESIVPELKKDTKLIKEVEIAGPGFINFYLDNAYLTDLVPVILTEDKKYG”, “not soluble”.
Take “MSLQKMKSSRKFLEGEPNIVIRKGELQYKVMKKNKIDINQLQSLLRQAGSFSIQEVEYAILETNGMVSVLPKSDFDKPTNKDLQIPSKSVSLPITLIIDGEIVRDNLKEAGVDEQWLKQELKKKNIDKTEDVLFAEWHKNKPLYTVTYEQSKGHHHHHH”: the “soluble on expression in E. coli” value is listed as “soluble”.
As to “SGPMDSRALRQGNRLLGNAEGCAALEITMSGPLLRFNTDAVIAVTGAHIPITLDGESCAMNTALLVRAGSTLALGTIAGAGVRSYLCVRGGLDVPDYLGSKSTFTLGQFGGHGGRALRAGDVLHIARLVDRTAGQKIADEQLDALQDVRQIRVIYGPHAAPEYFTESYIETFFATDWEVHFNSSRTGVRLIGPKPEWVRADGGEAGLHPSNIHDNPYAIGAVDFTGDMPVILGPDGPSLGGFVCPVTIIEADLWQLGQLKAGDKVRFYPVSVEACHAAMNSQGPLPQGPLNTSGSGL”, the “soluble on expression in E. coli” value is “not soluble”.
Take “MGSDKIHHHHHHMDIIEELRAYREKDIPYSRVLSSMCTVPHPVAVEAHRMFIETNLGDPGIFRGTVELEAKLMRLIGDILHCETPAGYICSGGTEANIQGIRAARNVQKKENPNIVIPKTAHFSFEKIGDILGVKIKRAGVDEEYKVDVGQVEDLMDENTVAIVGIAGTTELGQIDPIVELSKLAEERQVELHVDAAFGGLVIPFMDNPYPFDFQNRGVSSITIDPHKMGMATIPAGGIIFRNESYLRALEVETPYLTSKTQFTLTGTRPGTGVASAYAVLKSLGFEGMREVVKNCLKNTRILVEEMRDLGFEPVIEPVMNVVSFRTDEAERIKEELYRMRWVISTIREPKAIRFVVMPHVTEEVIKNFISDFRKVLRR”: the “soluble on expression in E. coli” value is “not soluble”.
For “VRIPALERGPGLKDLAIFSRQLATMLGAGLTLLQALAILERQTENRKFREILKQVRTDVEGGMAFSEALSKHKIFSRLYVNLVRAGETSGGLDLILDRLASFLEKELELRGKIRSA” the value was “soluble”.
Take “MGSDKIHHHHHHMERIPVIKTSDLSIGYILKGGQKKRVHDALDLNLYPGEVTCLLGLNGAGKSTLLRTLCGFQPPLGGEIELMGKPLNSYSQGNFSRLVGVVLTEKTNAGGITVYELVSLGRHPYTGFFGQLRQEDRRIIEESLAAAGIAHKAYNYVSELSDGERQKAMIAKALAQQCPIILLDEPTAFLDVTSRIETMVLLHTLAVEQQKAILLSTHDLDLAIQLGDCLWLQEKKRPMACGTPEDLIMGGAFETFFSKEGIVFDPNTGKLNTVAPAKLIGVAGDFMTSYWVGNALIRNGFKPSSVSEDYISVYCNAPDSLRIQFPAEEGTRIVGSVAEMISIIIHKS”: the “soluble on expression in E. coli” value is listed as “not soluble”.
